Assay results from article PMC9884024 (2022).

B1: MdMPK6-02G (as used in the BLI assay) (enzyme)
chain: MEGGGRSADTMMSEAAPPSQPDPNHPQQHPPPPHHAMGGVESIPATLSHGGRFIQYNIFGNVFEVTAKYKPPIMPIGKGAYGIVCSALNSETNEHVAVKKIANAFDNRIDAKRTLREIKLLRHMDHENVVAIRDIIPPPQRNFFNDVYIAYELMDTDLHQIIRSNQALSEEHCQYFLYQILRGLKYIHSANVLHRDLKPSNLLLNANCDLKICDFGLARVTSETDFMTEYVVTRWYRAPELLLNSSDYTAAIDVWSVGCIFMELMDRKPLFPGRDHVHQLRLLMELIGTPSEAELQFLNENAKRYIRQLPLYRRQSFTEKFPHVHPSAIDLVEKMLTFDPTRRITVEDALAHPYLTSLHDISDEPVCLTPFSFDFEQHALSEEQMKELIYREALAFNPEYQRQ
B2: MdHY5 (as used in the BLI assay) (natural protein)
chain: MQEQATSSLAASSLPSSSERSSSSAFHLEVKEGMESDEEIGRVPEIGGESAGASASARENGLLAGPDQVQTAGESQRKRGRNPADKESKRLKRLLRNRVSAQQARERKKAYLNDLEVRVKELEQKNSELDERLSTLQNENQMLRHILKNTTASRRGADGGANAD

Columns and labels:
Assay in all cases: BLI
[1] = target: B2
[2] = target: B2
[3] = target: MdMPK6-15G (as used in the BLI assay) (Malus domestica (apple))

Row | koff [1] | Kd [2] | Kd [3] | koff [3] | Binder
1 | 0.00355 s⁻¹ | 119 nM | – | – | B1
2 | – | – | 93.9 nM | 0.00105 s⁻¹ | B2
